Earlier results on one substance are cited in PMC9574052.

For this data set, the target named is oxytocin receptor (Homo sapiens) (UniProt P30559).

pKi: −log10 of the molar value.

Chain of UniProt P30559 (P30559 whole entry): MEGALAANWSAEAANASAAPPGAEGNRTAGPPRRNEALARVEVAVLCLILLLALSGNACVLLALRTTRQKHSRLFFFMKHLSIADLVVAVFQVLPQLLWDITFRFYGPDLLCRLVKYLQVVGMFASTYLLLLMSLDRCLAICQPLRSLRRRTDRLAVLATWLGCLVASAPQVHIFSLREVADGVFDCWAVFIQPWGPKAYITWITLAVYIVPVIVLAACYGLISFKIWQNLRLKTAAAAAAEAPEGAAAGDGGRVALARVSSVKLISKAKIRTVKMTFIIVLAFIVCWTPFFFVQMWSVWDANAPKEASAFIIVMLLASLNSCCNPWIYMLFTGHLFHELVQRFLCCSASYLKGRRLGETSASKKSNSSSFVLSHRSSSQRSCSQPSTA
Chain of oxytocin (P01178 whole entry, looked up): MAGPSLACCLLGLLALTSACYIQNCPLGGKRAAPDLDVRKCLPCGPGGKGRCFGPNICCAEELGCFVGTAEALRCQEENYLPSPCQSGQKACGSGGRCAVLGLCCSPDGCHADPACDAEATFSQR

One may read the pKi as −log10 of the Ki, conventionally taken in molar units. For the substance oxytocin (from UniProt P01178), the pKi is 9.10.
